This passage reports protein stability index results from the supplement of paper PMC10567573.

The data set in a line: protein stability index of a GFP-peptide fusion (GPS, HEK-293T) (PSI 1-6); higher = more stable. Conditions: c terminus: a fixed tail appended.

± gives the standard deviation.
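Note: 24-mer peptide tiles fused after GFP, lentivirally expressed, FACS-sorted into six equal bins by GFP/DsRed ratio, decoded by Illumina sequencing, PSI is the read-weighted mean bin number.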

Regarding NICENTEGAIAVHCKAGLGRTGTL [CDC14A], the protein stability index by setting is: (treatment: DMSO) 3.13 ± 0.22; (treatment: MLN4924 1 uM, 8 h) 3.21 ± 0.3.

Take NIPGNSTLITAVELERFVNLHSLA [FBXO33]: the protein stability index is, setting by setting: (treatment: DMSO) 2.27 ± 0.24; (treatment: MLN4924 1 uM, 8 h) 2.23 ± 0.37.

Consider NIVEYLIQEQPGQEQVAGGEAQPG [FEM1A], for which the protein stability index is 4.33 ± 0.25 (treatment: DMSO) and 4.15 ± 0.47 (treatment: MLN4924 1 uM, 8 h).

Consider NIYYYLEDDSMSVIEPVVENSGIL [EFHC1], for which the protein stability index amounted to 2.45 ± 0.43 (treatment: DMSO) and 2.41 ± 0.42 (treatment: MLN4924 1 uM, 8 h). Taken in the same sequence, the figures for NKAAVMVHQLSKKEASRHAIMRSP [CTNNB1] were 3.86 ± 0.16 and 3.8 ± 0.2. Taken in the same sequence, the figures for NKLLLSIIILLELAILGGLVYYKF [VTI1B] were 2.96 ± 0.57 and 2.84 ± 0.49.

Regarding NLHRVAAHELGHSLGLSHSTDIGA [MMP1], the protein stability index by setting is: (treatment: DMSO) 3.48 ± 0.33; (treatment: MLN4924 1 uM, 8 h) 3.57 ± 0.33. On the same counts, the results for NLLSPLLTGTESPFDLEQQWQDLM [NFE2L1] are 3.12 ± 0.21 and 3.17 ± 0.041. Taken in the same sequence, the figures for NMHLNLRPFDCPVCNKKFKMKHHL [ZBTB22] were 2.4 ± 0.2 and 2.81 ± 0.35. In the case of NMSKEDAMVEFVKLLNRCCHLFST [ACBD3], the protein stability index was found to be 2.24 ± 0.16 (treatment: DMSO) and 2.29 ± 0.39 (treatment: MLN4924 1 uM, 8 h). On the same counts, the results for NNLEPILEGYISNLRKQLETLSGD [KRT71] are 3.07 ± 0.26 and 3.18 ± 0.35.

Regarding NQNRAYVTLAAHFLGLGAPNCLSM [ZBED1], the protein stability index reads like this: (treatment: DMSO) 3.07 ± 0.95; (treatment: MLN4924 1 uM, 8 h) 3.08 ± 0.59. NSTSVKKKSSRNIFSIVFVFFVCF [P2RY14]: the protein stability index (treatment: DMSO) came to 2 ± 0.64. NSWMGSQGPMSQRRENYGVPPRRA [RBMY1A1]: the protein stability index is 4.65 ± 0.26 (treatment: DMSO) and 4.28 ± 0.16 (treatment: MLN4924 1 uM, 8 h). Taken in the same sequence, the figures for NTRGTGSSSSGVLMVGPNFRVGKK [CSNK1G3] were 4.48 ± 0.2 and 4.51 ± 0.18. Taken in the same sequence, the figures for NVIDRMKESSPSGSKSQRYSGAYG [CHCHD3] were 4.13 ± 0.4 and 4.13 ± 0.15.

With PAEQAFWCLVQICEKYLPGYYSEK [TBC1D10A], the protein stability index was determined as 3.37 ± 0.55 (treatment: DMSO) and 3.46 ± 0.48 (treatment: MLN4924 1 uM, 8 h). As for PAFIIVKLSPLRDRLVVTECQLTH [ZSWIM9], the protein stability index (treatment: DMSO) stood at 3.33 ± 0.57 and the protein stability index (treatment: MLN4924 1 uM, 8 h) was found to be 3.02 ± 0.54. Taken in the same sequence, the figures for PAHKNLNKQAYDLAKALLKRTAQA [PDS5B] were 2.22 ± 0.16 and 2.51 ± 0.18. On to PAISITENVLHFKAQGHGAKGDNV [HACD3], for which the protein stability index (treatment: DMSO) was determined as 4.54 ± 0.095 and the protein stability index (treatment: MLN4924 1 uM, 8 h) stood at 4.57 ± 0.37. Take PAKAANRTPPKSPGDPSKDRAAKR [TPPP]: the protein stability index runs as follows: (treatment: DMSO) 5.22 ± 0.38; (treatment: MLN4924 1 uM, 8 h) 5.21 ± 0.32. Taken in the same sequence, the figures for PAPKSTYECRCIGEEKEMWNFGEK [TIA1] were 3.86 ± 0.23 and 3.85 ± 0.33. Taken in the same sequence, the figures for PAPSPHEEPCSPGLLQDQGSGLSS [CBY2] were 5.31 ± 0.22 and 5.194 ± 0.04. Regarding PASGSGADSEPARHIFSFSWLNSL [TRIM55], the protein stability index is, setting by setting: (treatment: DMSO) 2.36 ± 0.16; (treatment: MLN4924 1 uM, 8 h) 2.5 ± 0.21. On the same counts, the results for PASGSTFRGRRDVSGSWERDQQVE [RETREG3] are 4.67 ± 0.22 and 4.86 ± 0.28. With PATEEQEAASSSSTLVEVTLGEVP [MAGEA3], the protein stability index runs as follows: (treatment: DMSO) 5.52 ± 0.17; (treatment: MLN4924 1 uM, 8 h) 5.51 ± 0.17. Taken in the same sequence, the figures for PDVRPPLGRGLVGGQEEASQEAGL [SEPHS2] were 5.27 ± 0.14 and 5.31 ± 0.18. Consider PEGSLSQTMAGSSPNTPQPVPEQS [FAM104A], for which the protein stability index (treatment: DMSO) worked out at 5.47 ± 0.14 and the protein stability index (treatment: MLN4924 1 uM, 8 h) turned out to be 5.45 ± 0.12. On the same counts, the results for PEKKSDQPMCEEHEEERINIYCLN [TRIM55] are 4.79 ± 0.12 and 4.77 ± 0.35. Taken in the same sequence, the figures for PENGEIKPASKPAGSSHTPSSQSS [ELOA2] were 5.43 ± 0.25 and 5.62 ± 0.067. Taken in the same sequence, the figures for PENLLLASKCKGAAVKLADFGLAI [CAMK2B] were 2.33 ± 0.31 and 2.56 ± 0.44. Turning to PERLCSGPGIVGNVLVDPSARIGQ [GMPPB], the protein stability index (treatment: DMSO) was found to be 3.92 ± 0.27 and the protein stability index (treatment: MLN4924 1 uM, 8 h) amounted to 3.89 ± 0.22. Taken in the same sequence, the figures for PESLNSPVSGKAVFMEFGPPNQQM [DLX1] were 3.79 ± 0.33 and 3.92 ± 0.26. On the same counts, the results for PFGFQTVTSDVNKLSSFYSLKLIK [SERPINB5] are 2.15 ± 0.17 and 2.31 ± 0.41. Taken in the same sequence, the figures for PFTPLHIKVKPKRVGIFLDYEAGT [TRIM39] were 2.45 ± 0.28 and 2.67 ± 0.26.

Turning to PGGNVKGVWAPPAPGFGEDVPNRL [BEX5], the protein stability index came to 3.95 ± 0.18 (treatment: DMSO) and 4.16 ± 0.23 (treatment: MLN4924 1 uM, 8 h). Where the note is “treatment: MLN4924 1 uM, 8 h”, PGHSGVSCEEVAASSASLEPMWSG [EMID1] registered a protein stability index of 5.08 ± 0.08.
